Reference: patent publication US9453050B2, “Compositions for treating glioma” (GLIA SP Z.O.O., priority 2011, dated 2016)

B1: shGM-CSF: shRNA to mouse GM-CSF, oligonucleotides SEQ ID NO: 23 and 24, stably expressed in EGFP-GL261 glioma cells (nucleic acid)
chain 1: GATCCCGGAAACGGACTGTGAAACATTCAAGAGATGTTTCACAGTCCGTTTCCGGTTTTTTGGAAA
chain 2: AGCTTTTCCAAAAAACCGGAAACGGACTGTGAAACATCTCTTGAATGTTTCACAGTCCGTTTCCGG
B2: shSPP1: shRNA specific to rat osteopontin, oligonucleotides SEQ ID NO: 21 and 22, stably expressed in C6 glioma cells (nucleic acid)
chain 1: GATCCAGCTAGTCCTAGACCCTAATTCAAGAGATTAGGGTCTAGGACTAGCTTGTTTTTTGGAAA
chain 2: AGCTTTTCCAAAAAACAAGCTAGTCCTAGACCCTAATCTCTTGAATTAGGGTCTAGGACTAGCTG
modifications: the letters are possibly those of the target site

How the values were obtained:
[1] = system: EGFP-GL261 glioma cells; experiment: MTT metabolism test of glioma cells expressing shGM-CSF; type: cell-based, mouse; details: FIG. 10D
Source text: To check if glioma-derived GM-CSF is responsible for recruitment of microglia/macrophages to gliomas and for tumor growth, EGFP-GL261 glioma cells stably depleted of GM-CSF were generated by over-expressing plasmids encoding specific shRNA. Silencing of GM-CSF expression at the mRNA level (FIG. 10A) and at the protein level (FIG. 10B) in two independently derived clones was confirmed by qPCR and ELISA. Two clones derived in parallel and expressing negative shRNA served as controls.

[2] = system: EGFP-GL261 glioma cells in murine brain slices; experiment: Tumor invasion in organotypical brain slice cultures; type: cell-based, mouse; details: 5d after injection; FIGS. 12A and B
Protocol: The organotypical brain slice cultures were obtained from 16-day-old male C57/BL6 mice (animal breeding facility, Schonwalde, Germany). The brain slices cut into 250 μm sections were transferred to a Transwell insert in a 6-well plate (Becton Dickinson, Lincoln Park, N.J., USA) and were incubated in 1 ml of DMEM (Gibco, Gaithersburg, Md., USA) supplemented with 10% FCS (Atlanta Biological, USA), 0.2 mM glutamine and antibiotics. After overnight equilibration, medium was exchanged for the cultivation medium containing 25% FCS, 50 mM sodium bicarbonate, 2% glutamine, 25% Hanks balanced salt solution, 1 μg/ml insulin (all from Gibco, Gaithersburg, Md., USA), 2.46 mg/ml glucose (Braun Melsungen AG, Germany), 0.8 μg/ml vitamin C (Sigma-Aldrich, Germany), 5 mM Tris and antibiotics. Slices were injected with 10,000 GFP-GL261 glioblastoma cells (in 0.5 μl) using a syringe mounted to a micromanipulator. […]
To investigate whether GM-CSF expression influences microglia dependent invasion or directly affects glioma invasion, an organotypic brain slice culture was used as a model. Control or GM-CSF-depleted EGFP-GL261 glioma cells were injected into murine brain slices and resulting tumor size was quantified 5d after injection by measuring the projected fluorescent area covered by the EGFP-glioma cells within the slice. […]

[3] = system: intracranial GL261 gliomas; experiment: Survival of mice with intracranial gliomas (Kaplan-Meier); type: in vivo, mouse
Protocol: Mice were randomly assigned to receive intracranial implantation of shNeg or shRNA glioma cells and observed until becoming moribund. EGFP-GL261 glioma cells, shGM-CSF glioma cells or shNeg glioma cells were inoculated in a right striatum using a syringe with a 26-gauge needle in a stereotactic apparatus according to the coordinates (+1.5 mm AP, −1.5 mL). Mice were resuscitated using i.p. administration of atipamazole and treated with the Tolfedine 4% (4 mg/kg s.c.) analgesic. Kaplan-Meier analysis of mice implanted with shGM-CSF and shNeg glioma cells (n=10 mice per group) was performed.
Two mice having shGM-CSF-gliomas were alive 63 days post implantation.

[4] = system: EGFP-GL261 glioma; experiment: Intracranial EGFP-GL261 glioma implantation in C57BL/6 mice; type: in vivo, mouse
Protocol: Adult C57BL/6 mice (12-16 wk) were anesthetized with an i.p. injection of ketamine (75 mg/kg) and medetomidine (1 mg/kg). EGFP-GL261 glioma cells, shGM-CSF glioma cells or shNeg glioma cells (8×10^4 cells in 1 μl of DMEM) were inoculated in a right striatum using 1-μl syringe with a 26-gauge needle in a stereotactic apparatus according to the coordinates (+1.5 mm AP, −1.5 mL). Mice were resuscitated using i.p. administration of atipamazole and […] Tolfedine 4% (4 mg/kg s.c.). At day 15th after glioma implantation, the animals were anesthetized, sacrificed and perfused with PBS or PBS and 4% paraformaldehyde in PBS. The brains were removed and minced or post-fixed for 24 h in the same fixative solution and placed in 30% sucrose in PBS at 4° C. Next, brains were frozen with dry CO2 and serial 20-μm-thick coronal sections were collected using a cryostat. Images were acquired using a Leica DM4000B microscope.
Tumor areas in coronal sections were measured using Image Pro-Plus software in an every second brain slice and tumor volumes were calculated according to the Cavalieri principle.
Staining with anti-Iba1 and anti-vWF antibodies was performed to detect microglia/macrophages and blood vessels, respectively. Sections were incubated with 0.5% H2O2 in PBS for 30 min at RT, permeabilized and blocked with 10% donkey serum with the addition of 0.3% Triton X-100 in PBS, and then incubated with the primary antibodies: anti-Iba-1 (rabbit, polyclonal, WAKO, 1:1000) or anti-vWF (rabbit, polyclonal, Abcam, 1:1000) for 24 h at 4° C. and with the secondary goat anti-rabbit biotinylated IgG for 2 hr at RT. The primary and secondary antibodies were diluted in PBS containing 0.1% Triton X-100 and 3% donkey serum. The sections were exposed to extravidin-peroxidase complex (1:200) for 1 h at RT and peroxidase activity was visualized with 0.02% 3.3′-diaminobenzidine (DAB) and 0.01% H2O2 in Tris buffer (pH 7.6). Sections were dehydrated and mounted with Histofluid (Sigma, Germany). […]

[5] = system: EGFP-GL261 glioma cells; experiment: BrdU incorporation of glioma cells expressing shGM-CSF; type: cell-based, mouse; details: FIG. 10C
[6] = system: osteopontin (spp1) mRNA in C6 glioma cells; experiment: qPCR of osteopontin silencing in stable C6 glioma clones; type: cell-based, rat; details: stable C6 glioma cell lines; FIGS. 7A and C
Protocol: Forward and reverse oligonucleotides were incubated in 0.1 M NaCl for 3 min at 94° C., followed by slow cooling to 37° C. for 1 h. The annealed DNA was ligated with pSilencer 2.0-U6 (Ambion, Germany) at BamHI and HindIII sites. After transformation into E. coli, plasmids were amplified, isolated and the sequences were verified by sequencing. The pSilencer-spp1, pSilencer-mfg8 pSilencer-GM-CSF and pSilencer 2.0-U6 Negative Control (Ambion) vectors were purified with Qiagen Plasmid Maxi Kit and 1.6 μg of each DNA was transfected into cells using 2 μl Lipofectamine-2000 (Invitrogen, UK). One day after transfection, hygromycin B (200 μg/ml) was added. Resistant clones were picked after 2 weeks and analysed for expression of appropriate mRNA by qRT-PCR.
RNA was isolated with RNeasy Mini Kit (Qiagen). First-strand cDNA was synthesized from 2 μg of total RNA (DNase-treated) in a 20 μl reverse transcriptase reaction mixture. […] The expression of Osteopontin, and lactadherin in C6 rat glioma cells and primary astrocytes was evaluated using qPCR. The expression of GM-CSF in GL261 glioma cells and primary astrocytes was evaluated using qPCR. […]
Reaction volume (20 μl) consisted of cDNA equivalent to 50 ng RNA, 1×SYBR Green PCR master mix (Applied Biosystems) and 0.9 μM of each primer. […] Relative quantification of gene expression was determined using the comparative CT method. […]

[7] = system: microglia cells; experiment: qPCR of GCM-induced genes in microglia exposed to GCM of shRNA-expressing C6 glioma cells; type: cell-based, rat; details: FIG. 7D
Protocol: Total RNA (2 μg) isolated from microglia cultures untreated or treated for 6 h with LPS or G-CM was used as a template to generate cDNA. As endogenous control 18S (Hs99999901_s1) rRNA was applied. Gene expression quantification was performed using the Applied Biosystem TaqMan® The real time amplifications were performed in duplicates in a 20 μl reaction volume containing 2×SYBR PCR MasterMix and a set of primers designed using PRIMER EXPRESS software for the following genes: iNOS, COX-2, II1beta, TNF alpha, MMP-2, MMP-9, MMP-14, Arg1, Id1 and c-Myc. The amount of target mRNA was first normalized to the 18S RNA expression level and then to a control. Data were analysed by the Relative Quantification (^ΔΔCt) method using 7500 System SDS software (Applied Biosystems). The expression of each product was normalized to 18S rRNA and is shown as the ratio of the target gene to 18S gene expression, calculated by 2^−ΔΔCt.
To investigate the role of identified proteins in GCM-induced activation of microglia cells, stable C6 glioma cell lines expressing shRNAs specific to osteopontin (shSPP1), or a control, negative shRNA (shNeg) were generated. Silencing efficiency was approximately 98.5% (FIGS. 7A and C). Silencing of […] inhibited GCM-induced expression c-Myc and smad7 in microglia cells (FIG. 7B). […]

[8] = system: C6 glioma cells; experiment: Matrigel matrix invasion of C6 glioma cells in presence of microglia; type: cell-based, rat; details: laser scanning cytometry; FIG. 7E
Protocol: The invasion assay was performed as described (Wesolowska et al. 2008, Kwiatkowska et al. 2011). Briefly, 24-well tissue culture inserts (12 μm pore size Transwell, Corning, N.Y., USA) were coated with the Growth Factor Reduced Matrigel™ Matrix (BD Biosciences, San Diego. Calif., USA). 100 μl of the Matrigel™ Matrix (1 mg/ml) diluted in distilled water, was dried under sterile conditions (37° C.) for 5-6 hours and reconstituted for 30 minutes in 200 μl of culture medium. C6 glioma cells (1.5×10^4/insert) were seeded on Matrigel-coated membrane in the serum-reduced medium (2% FBS) and exposed to microglia or left untreated. After 48 h cells were fixed and cell nuclei stained with DAPI. The membranes from Transwell® inserts were cut out and the total number of cells that migrated through the Matrigel was determined using Laser Scanning Cytometry (LSC, CompuCyte). All experiments were performed in triplicate. The data from three independent experiments were pooled and expressed as the average number of cells±S.D.
To investigate the role of identified proteins in GCM-induced activation of microglia cells, stable C6 glioma cell lines expressing shRNAs specific to osteopontin (shSPP1), or a control, negative shRNA (shNeg) were generated. Silencing efficiency was approximately 98.5% (FIGS. 7A and C). […]

[9] = system: C6 glioma; experiment: C6 glioma implantation into striatum of Wistar rats; type: in vivo, rat; details: 15 days after implantation, FIG. 19C
Protocol: RNA was isolated from rat C6 glioma clones stably expressing shRNA against osteopontin cells and cDNA was synthesized using reverse-transcriptase and random hexamer primers. Knock down efficiency of osteopontin was confirmed by Real Time PCR (FIG. 19A). C6 glioma cells expressing control shRNA (shNeg) or glioma cells depleted of osteopontin (shSPP1) (5×10^4 cells/2.5 μl of DMEM) were implanted into the right striatum of 8-10 weeks old Wistar rats. 15 days after glioma implantation, the animals were sacrificed and intracardially perfused with 4% paraformaldehyde. The brains were removed, frozen with dry CO^2 and serial 20- or 12-μm-thick coronal sections were collected using a cryostat. To quantify the tumor size, 20 μm-thick sections were stained with toluidine blue, images were acquired using a Leica DM4000B microscope. Tumor areas were measured using ImageJ software in an every fourth brain slice and tumor volumes were calculated according to the Cavalieri principle (Gabrusiewicz et al, 2011). […] Moreover, gliomas from implanted C6-Neg were of similar sizes as WT C6 cells (n=5, 28.33±14.53 mm^3). […] Results are expressed as the means±s.d. from 2 independent experiments (U-Mann-Whitney test).

| Molecule | survival of glioma cells (MTT metabolism) [1] | average tumor size smaller than controls (fluorescent area) [2] [%] | mice alive 63 days post implantation ([3]; 63 days post implantation) | survival of mice ([3]; n=10 mice per group, FIG. 16) | number of microglia/macrophages (anti-Iba-1 staining) ([4]; vs control gliomas (shNeg), FIGS. 11A and B) | formation of tumor vessels (anti-vWF staining) ([4]; vs controls, FIG. 11C) | reduction of tumor size ([4]; vs shNeg glioma cells, day 15, FIG. 11D-E) [%] | proliferation of glioma cells (BrdU incorporation) [5] | Silencing efficiency [6] | GCM-induced expression arg-1 and smad7 in microglia cells [7] | microglia-dependent invasion of glioma cells through Matrigel [8] | tumor volume (mean value) [9] [mm^3] | reduction in tumor volumes ([9]; vs C6-Neg) [%] |
| --- | --- | --- | --- | --- | --- | --- | --- | --- | --- | --- | --- | --- | --- |
| B1 | did not affect | 58 | Two | significant survival benefit | reduced number | reduced formation | 65 | did not affect |  |  |  |  |  |
| B2 |  |  |  |  |  |  |  |  | approximately 98.5% | inhibited | strongly reduces | 6.03 | 88 |
